Values quoted from earlier work as cited in paper PMC5319408.

Biological target: cytochrome P450cam (CYP101, oxidized) (Pseudomonas putida) (UniProt P00183)
UniProt P00183, sequence (P00183 2-415): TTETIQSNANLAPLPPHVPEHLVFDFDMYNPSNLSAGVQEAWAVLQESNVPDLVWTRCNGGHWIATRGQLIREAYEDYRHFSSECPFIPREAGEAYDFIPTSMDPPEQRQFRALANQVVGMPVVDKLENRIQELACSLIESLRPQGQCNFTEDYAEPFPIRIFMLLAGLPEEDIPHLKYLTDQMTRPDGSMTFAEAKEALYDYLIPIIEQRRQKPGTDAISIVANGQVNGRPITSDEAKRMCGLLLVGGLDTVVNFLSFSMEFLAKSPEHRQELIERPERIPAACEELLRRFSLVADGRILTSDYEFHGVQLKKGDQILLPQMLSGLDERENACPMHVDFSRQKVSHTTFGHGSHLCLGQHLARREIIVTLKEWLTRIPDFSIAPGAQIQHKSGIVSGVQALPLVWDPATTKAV

Substance: putidaredoxin (oxidized) (from UniProt P00259)
- Kd: 17 µM
